{"source": "patent US20090220535A1", "about": "(REGENTS OF THE UNIVERSITY OF COLORADO, published 2009)", "binders": {"B1": {"name": "HPV11 GST-L2 (313-455) (other)", "chain": "GARIHYFQDISPVTQAAEEIELHPLVAAENDTFDIYAEPFDPIPDPVQHSVTQSYLTSTPNTLSQSWGNTTVPLSIPSDWFVQSGPDITFPTASMGTPFSPVTPALPTGPVFITGSDFYLHPTWYFARRRRKRIPLFFTDVAA", "notes": "Carboxy-terminal third of HPV11 L2; also called pXA/BN-HPV11L2/313-455; HPV GST=L2(313455); not shown: glutathione-S-transferase (GST) fusion partner from vector pXA/BN (multiple cloning site of pGEX-4T-2); thrombin-cleavab"}, "B2": {"name": "HPV11 GST-L2 (313-455) mutant P419A (other)", "chain": "GARIHYFQDISPVTQAAEEIELHPLVAAENDTFDIYAEPFDPIPDPVQHSVTQSYLTSTPNTLSQSWGNTTVPLSIPSDWFVQSGPDITFPTASMGTPFSPVTPALATGPVFITGSDFYLHPTWYFARRRRKRIPLFFTDVAA", "notes": "also called pXA/BN-HPV11L2/313-455/P419A; not shown: N-terminal GST fusion partner and its thrombin linker (vector pXA/BN with the pGEX-4T-2 cloning site)"}, "B3": {"name": "HPV11 GST-L2 (313-455) mutant A417E (other)", "chain": "GARIHYFQDISPVTQAAEEIELHPLVAAENDTFDIYAEPFDPIPDPVQHSVTQSYLTSTPNTLSQSWGNTTVPLSIPSDWFVQSGPDITFPTASMGTPFSPVTPELPTGPVFITGSDFYLHPTWYFARRRRKRIPLFFTDVAA", "notes": "also called pXA/BN-HPV11L2/313-455/A417E; not shown: N-terminal GST fusion partner and its thrombin linker (vector pXA/BN with the pGEX-4T-2 cloning site)"}, "B4": {"name": "HPV11 GST-L2 (313-455) mutant L418E (other)", "chain": "GARIHYFQDISPVTQAAEEIELHPLVAAENDTFDIYAEPFDPIPDPVQHSVTQSYLTSTPNTLSQSWGNTTVPLSIPSDWFVQSGPDITFPTASMGTPFSPVTPAEPTGPVFITGSDFYLHPTWYFARRRRKRIPLFFTDVAA", "notes": "not shown: N-terminal GST fusion partner and its thrombin linker (vector pXA/BN with the pGEX-4T-2 cloning site)"}, "B5": {"name": "HPV11 GST-L2 (313-455) mutant P413A (other)", "chain": "GARIHYFQDISPVTQAAEEIELHPLVAAENDTFDIYAEPFDPIPDPVQHSVTQSYLTSTPNTLSQSWGNTTVPLSIPSDWFVQSGPDITFPTASMGTPFSAVTPALPTGPVFITGSDFYLHPTWYFARRRRKRIPLFFTDVAA", "notes": "also called pXA/BN-HPV11L2/313-455/P413A; not shown: N-terminal GST fusion partner and its thrombin linker (vector pXA/BN with the pGEX-4T-2 cloning site)"}, "B6": {"name": "HPV11 GST-L2 (313-455) double mutant AL417-418EE (other)", "chain": "GARIHYFQDISPVTQAAEEIELHPLVAAENDTFDIYAEPFDPIPDPVQHSVTQSYLTSTPNTLSQSWGNTTVPLSIPSDWFVQSGPDITFPTASMGTPFSPVTPEEPTGPVFITGSDFYLHPTWYFARRRRKRIPLFFTDVAA", "notes": "The text says 'changed to glutamines' but prints EE and speaks of negatively charged residues; also called pXA/BN-HPV11L2/313-455/AL417418EE; not shown: N-terminal GST fusion partner and its thrombin linker (vector pXA/BN with the pGEX-4T-2 cloning site)"}, "B7": {"name": "HPV11 GST-L2 (313-455) mutant P416A (other)", "chain": "GARIHYFQDISPVTQAAEEIELHPLVAAENDTFDIYAEPFDPIPDPVQHSVTQSYLTSTPNTLSQSWGNTTVPLSIPSDWFVQSGPDITFPTASMGTPFSPVTAALPTGPVFITGSDFYLHPTWYFARRRRKRIPLFFTDVAA", "notes": "also called pXA/BN-HPV11L2/313-455/P416A; not shown: N-terminal GST fusion partner and its thrombin linker (vector pXA/BN with the pGEX-4T-2 cloning site)"}, "B8": {"name": "HPV11 GST-L2 fusion protein, L2 amino acids 1-455 (full length) (other)", "chain": "MKPRARRRKRASATQLYQTCKATGTCPPDVIPKVEHTTIADQILKWGSLGVFFGGLGIGTGAGSGGRAGYIPLGSSPKPAITGGPAARPPVLVEPVAPSDPSIVSLIEESAIINAGAPEVVPPTQGGFTITSSESTTPAILDVSVTNHTTTSVFQNPLFTEPSVIQPQPPVEASGHILISAPTITSQHVEDIPLDTFVVSSSDSGPTSSTPLPRAFPRPRVGLYSRALQQVQVTDPAFLSTPQRLVTYDNPVYEGEDVSLQFTHESIHNAPDEAFMDIIRLHRPAITSRRGLVRFSRIGQRGSMYTRSGQHIGARIHYFQDISPVTQAAEEIELHPLVAAENDTFDIYAEPFDPIPDPVQHSVTQSYLTSTPNTLSQSWGNTTVPLSIPSDWFVQSGPDITFPTASMGTPFSPVTPALPTGPVFITGSDFYLHPTWYFARRRRKRIPLFFTDVAA", "notes": "also called pXA/BN-HPV11 L2; not shown: glutathione-S-transferase (GST) fusion partner from vector pXA/BN (multiple cloning site of pGEX-4T-2); thrombin-cleavab"}, "B9": {"name": "HPV11 GST-L2 fusion protein, L2 amino acids 157-309 (other)", "chain": "PLFTEPSVIQPQPPVEASGHILISAPTITSQHVEDIPLDTFVVSSSDSGPTSSTPLPRAFPRPRVGLYSRALQQVQVTDPAFLSTPQRLVTYDNPVYEGEDVSLQFTHESIHNAPDEAFMDIIRLHRPAITSRRGLVRFSRIGQRGSMYTRSG", "notes": "also called pXA/BN-HPV11L2/157-309; not shown: glutathione-S-transferase (GST) fusion partner from vector pXA/BN (multiple cloning site of pGEX-4T-2); thrombin-cleavab"}, "B10": {"name": "HPV11 GST-L2 fusion protein, L2 amino acids 1-156 (other)", "chain": "MKPRARRRKRASATQLYQTCKATGTCPPDVIPKVEHTTIADQILKWGSLGVFFGGLGIGTGAGSGGRAGYIPLGSSPKPAITGGPAARPPVLVEPVAPSDPSIVSLIEESAIINAGAPEVVPPTQGGFTITSSESTTPAILDVSVTNHTTTSVFQN", "notes": "also called pXA/BN-HPV11L2/1-156; not shown: glutathione-S-transferase (GST) fusion partner from vector pXA/BN (multiple cloning site of pGEX-4T-2); thrombin-cleavab"}, "B11": {"name": "HPV11 GST-L2 fusion protein, L2 amino acids 1-309 (other)", "chain": "MKPRARRRKRASATQLYQTCKATGTCPPDVIPKVEHTTIADQILKWGSLGVFFGGLGIGTGAGSGGRAGYIPLGSSPKPAITGGPAARPPVLVEPVAPSDPSIVSLIEESAIINAGAPEVVPPTQGGFTITSSESTTPAILDVSVTNHTTTSVFQNPLFTEPSVIQPQPPVEASGHILISAPTITSQHVEDIPLDTFVVSSSDSGPTSSTPLPRAFPRPRVGLYSRALQQVQVTDPAFLSTPQRLVTYDNPVYEGEDVSLQFTHESIHNAPDEAFMDIIRLHRPAITSRRGLVRFSRIGQRGSMYTRSG", "notes": "also called pXA/BN-HPV11L2/1-309; not shown: glutathione-S-transferase (GST) fusion partner from vector pXA/BN (multiple cloning site of pGEX-4T-2); thrombin-cleavab"}, "B12": {"name": "HPV11 GST-L2 fusion protein, L2 amino acids 396-439 (other)", "chain": "SGPDITFPTASMGTPFSPVTPALPTGPVFITGSDFYLHPTWYFA", "notes": "also called pXA/BN-HPV11L2/396-439; not shown: glutathione-S-transferase (GST) fusion partner from vector pXA/BN (multiple cloning site of pGEX-4T-2); thrombin-cleavab"}}, "data": [{"target": "T1, HPV11 L1 protein (human papillomavirus type 11, UniProt P04012 1-501)", "T1 construct": "Full-length HPV11 L1 DNA amplified from pVL11L1", "T1 sequence": "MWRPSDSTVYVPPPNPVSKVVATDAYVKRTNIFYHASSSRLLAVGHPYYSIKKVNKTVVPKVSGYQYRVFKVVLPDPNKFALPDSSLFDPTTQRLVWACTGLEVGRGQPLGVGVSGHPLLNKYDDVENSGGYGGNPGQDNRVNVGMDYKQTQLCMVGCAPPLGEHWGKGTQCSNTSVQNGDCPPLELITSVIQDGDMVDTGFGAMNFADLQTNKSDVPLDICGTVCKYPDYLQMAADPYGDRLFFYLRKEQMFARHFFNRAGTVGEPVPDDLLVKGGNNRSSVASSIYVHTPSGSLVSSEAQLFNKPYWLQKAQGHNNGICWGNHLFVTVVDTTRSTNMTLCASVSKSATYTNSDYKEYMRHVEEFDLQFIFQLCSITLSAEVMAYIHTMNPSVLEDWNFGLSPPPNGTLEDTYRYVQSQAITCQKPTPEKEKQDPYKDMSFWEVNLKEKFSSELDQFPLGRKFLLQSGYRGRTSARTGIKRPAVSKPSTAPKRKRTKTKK", "experiment": "co-expression, glutathione sepharose eluate, densitometry", "values": [{"binder": "B1", "L1:L2": "2 L1:L2 ratio"}, {"binder": "B2", "binding result": "binds"}, {"binder": "B3", "L1:L2": "1 L1:L2 ratio"}, {"binder": "B4", "binding result": "binds"}, {"binder": "B5", "binding result": "binds"}, {"binder": "B6", "L1:L2": "0.33 L1:L2 ratio"}, {"binder": "B7", "binding result": "binds"}]}, {"target": "T1, HPV11 L1 protein", "experiment": "densitometry after size exclusion chromatography of the complex", "values": [{"binder": "B1", "L1:L2": "~5 L1:L2 ratio"}]}, {"target": "T1, HPV11 L1 protein", "experiment": "densitometry of partially purified glutathione sepharose eluates", "values": [{"binder": "B1", "L1:L2": "~2 L1:L2 ratio"}]}, {"target": "T1, HPV11 L1 protein", "experiment": "co-expression in E. coli, glutathione sepharose eluate, SDS-PAGE", "description": "The lysates were then treated with 10 units/ml DNAse I in the presence of 5 mM MgCl2 for 30 minutes. […] Lysates were briefly sonicated, then centrifuged at 17,000 G for one hour and the supernatant was passed over a 10 mL bed volume glutathione sepharose column. […] The columns were washed with buffer L (40 mM Tris-Cl, pH 8.0, 0.2 M NaCl, 1 mM EDTA, 2 mM DTT) until no protein was detectable in the wash (approximately 20 bed volumes). To purify L1+GST-L2 complexes, bound proteins were eluted with 10 mM reduced glutathione in buffer L. The eluates were concentrated using Centriplus concentrators (Amicon). To further purify L1+L2 complexes from contaminating bacterial proteins, free L2 and L2 degradation products, eluted proteins were subjected to size exclusion fast pressure chromatography (FPLC) using a HiLoad Superdex 200 gel filtration column (Pharmacia). FPLC fractions containing complexes were pooled and further concentrated as outlined above. Protein complexes were analyzed by SDS-PAGE followed by Coomassie blue staining or immunoblotting. For densitometric analysis on Coomassie-stained gels, images were captured using a fluor-S MultiImager (Bio-Rad) with Quantity One software (BioRad) and quantitated using ImageQuant software (Molecular Dynamics). Using this strategy, L1 will be present upon elution from glutathione-sepharose only if it is bound to GST-L2.\nThe ability of each L2 protein to bind HPV11 L1 was determined by the presence or absence of L1 in the eluate from the glutathione sepharose column as measured by SDS-PAGE.", "values": [{"binder": "B8", "binding result": "binds"}, {"binder": "B9", "binding result": "no binding"}, {"binder": "B10", "binding result": "no binding"}, {"binder": "B11", "binding result": "no binding"}, {"binder": "B12", "binding result": "binds"}]}, {"target": "T1, HPV11 L1 protein", "experiment": "co-expression, glutathione sepharose eluate, densitometry of Coomassie-stained SDS-PAGE", "values": [{"binder": "B1", "L1:L2": "> 1 L1:L2 ratio"}]}]}
